{
  "source": "patent US20110263454A1",
  "about": "“Methods of Identifying Functional Characteristics of Promoters, Transcription Modifying Proteins and Transcription Modulating Agents” (Salk Institute for Biological Studies, priority 2008, published 2011)",
  "molecules": {"B1": {"name": "hMR: Mineralocorticoid Receptor (NR3C2, MR), cDNA driver (protein, UniProt P08235 1-984, looked up)", "Mineralocorticoid receptor": "METKGYHSLPEGLDMERRWGQVSQAVERSSLGPTERTDENNYMEIVNVSCVSGAIPNNSTQGSSKEKQELLPCLQQDNNRPGILTSDIKTELESKELSATVAESMGLYMDSVRDADYSYEQQNQQGSMSPAKIYQNVEQLVKFYKGNGHRPSTLSCVNTPLRSFMSDSGSSVNGGVMRAVVKSPIMCHEKSPSVCSPLNMTSSVCSPAGINSVSSTTASFGSFPVHSPITQGTPLTCSPNVENRGSRSHSPAHASNVGSPLSSPLSSMKSSISSPPSHCSVKSPVSSPNNVTLRSSVSSPANINNSRCSVSSPSNTNNRSTLSSPAASTVGSICSPVNNAFSYTASGTSAGSSTLRDVVPSPDTQEKGAQEVPFPKTEEVESAISNGVTGQLNIVQYIKPEPDGAFSSSCLGGNSKINSDSSFSVPIKQESTKHSCSGTSFKGNPTVNPFPFMDGSYFSFMDDKDYYSLSGILGPPVPGFDGNCEGSGFPVGIKQEPDDGSYYPEASIPSSAIVGVNSGGQSFHYRIGAQGTISLSRSARDQSFQHLSSFPPVNTLVESWKSHGDLSSRRSDGYPVLEYIPENVSSSTLRSVSTGSSRPSKICLVCGDEASGCHYGVVTCGSCKVFFKRAVEGQHNYLCAGRNDCIIDKIRRKNCPACRLQKCLQAGMNLGARKSKKLGKLKGIHEEQPQQQQPPPPPPPPQSPEEGTTYIAPAKEPSVNTALVPQLSTISRALTPSPVMVLENIEPEIVYAGYDSSKPDTAENLLSTLNRLAGKQMIQVVKWAKVLPGFKNLPLEDQITLIQYSWMCLSSFALSWRSYKHTNSQFLYFAPDLVFNEEKMHQSAMYELCQGMHQISLQFVRLQLTFEEYTIMKVLLLLSTIPKDGLKSQAAFEEMRTNYIKELRKMVTKCPNNSGQSWQRFYQLTKLLDSMHDLVSDLLEFCFYTFRESHALKVEFPAMLVEIISDQLPKVESGNAKPLYFHRK"}},
  "key": {"mAdiponectin promoter": {"tested_on": "mAdiponectin promoter", "experiment": "NHR-promoter luciferase screen, mAdiponectin promoter", "type": "cell-based, mouse", "outline": "(§1)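 CV-1 cells were co-transfected with 50 ng NHR (homodimer or NHR/RXR heterodimer), 100 ng promoter-luciferase construct and 50 ng LacZ. Luciferase was normalized to LacZ and to a no-NHR/no-ligand control.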"}, "mAgrp promoter": {"tested_on": "mAgrp promoter", "experiment": "NHR-promoter luciferase screen, mAgrp promoter", "type": "cell-based, mouse", "outline": "as §1"}, "mPOMC promoter": {"tested_on": "mPOMC promoter", "experiment": "NHR-promoter luciferase screen, mPOMC promoter", "type": "cell-based, mouse", "outline": "as §1"}, "hIRF7 promoter": {"tested_on": "hIRF7 promoter", "experiment": "NHR-promoter luciferase screen, hIRF7 promoter", "type": "cell-based, human", "outline": "as §1"}, "hMyoD promoter": {"tested_on": "hMyoD promoter", "experiment": "NHR-promoter luciferase screen, hMyoD promoter", "type": "cell-based, human", "outline": "as §1"}, "[1]": {"conditions": "Adiponectin, HR component without or with its ligand"}, "[2]": {"conditions": "transcription factor +/- ligand, control = 1.00"}, "[3]": {"conditions": "Table 6d, luciferase activity relative to control (control = 1.00)"}},
  "data": [
    {"molecule": "B1", "values": [
      {"measurement": "Luc. act., normalized to lacZ", "setting": "mAdiponectin promoter; [1]", "value": 32.3},
      {"measurement": "Normalized Luc. act., normalized to control", "setting": "mAdiponectin promoter; [1]", "value": 0.5},
      {"measurement": "mAdiponectin promoter reporter activity", "setting": "mAdiponectin promoter; [2]", "value": 0.51},
      {"measurement": "Results of assays of transcription factor (+/- ligand) with mAgrp", "setting": "mAgrp promoter; [3]", "value": 0.79},
      {"measurement": "Luc. act., normalized to lacZ", "setting": "mAgrp promoter; mAgrp promoter, HR component with or without ligand", "value": 31.2},
      {"measurement": "Normalized Luc. act., normalized to control", "setting": "mAgrp promoter; mAgrp promoter, HR component with or without ligand, relative to control", "value": 0.8},
      {"measurement": "Results of assays of transcription factor (+/- ligand) with mPOMC", "setting": "mPOMC promoter; [3]", "value": 0.73},
      {"measurement": "Luc. act., normalized to lacZ", "setting": "mPOMC promoter; mPOMC promoter, HR component with or without ligand", "value": 50.3},
      {"measurement": "Normalized Luc. act., normalized to control", "setting": "mPOMC promoter; mPOMC promoter, HR component with or without ligand, relative to control", "value": 0.7},
      {"measurement": "Normalized Luc. act., normalized to control", "setting": "hIRF7 promoter; IRF7 promoter reporter, HR without or with its ligand, relative to control", "value": 0.8},
      {"measurement": "Luc. act., normalized to lacZ", "setting": "hIRF7 promoter; IRF7 promoter reporter, hormone receptor (HR) without or with its ligand", "value": 21.1},
      {"measurement": "hIRF7 promoter reporter activity", "setting": "hIRF7 promoter; [2]", "value": 0.80},
      {"measurement": "Luc. act., normalized to lacZ", "setting": "hMyoD promoter; MyoD promoter reporter, co-transfected HR, without or with its ligand", "value": 37.1},
      {"measurement": "Normalized Luc. act., normalized to control", "setting": "hMyoD promoter; MyoD promoter reporter, co-transfected HR, without or with its ligand, relative to control", "value": 0.6},
      {"measurement": "luciferase activity normalized to lacZ activity and to a control, hMyoD", "setting": "hMyoD promoter; hMyoD promoter-luciferase, CV-1 cells, NHR +/- ligand, control = 1.00", "value": 0.59}
    ]}
  ]
}
